From the nanobody polyreactivity screen of Harvey et al. (2022)

Test: yeast display, Sf9 membrane polyspecificity reagent, FACS + sequencing; frameworks hold sequencing errors
Method in brief: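 A nanobody's polyreactivity label depends on the gate it was sorted from. Yeast display cells were stained with 10% biotinylated, detergent-solubilized Sf9 membrane reagent for 1 hour at 4 °C, enriched on streptavidin microbeads and sorted by FACS. The low and high (top ~1%) gates were set on anti-HA fluorescence for expression and streptavidin fluorescence for reagent binding.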

Sequence | polyreactivity (PSR sort gate)
QVQLVESGGGLVQAGGSLRLSCAASGSIFRYNAMGWYIQAPGKERELVAAISWNGARTYYADSVKGRFTISRDNAKNTVYLQMNSLKPEDTAVYYCNAGTFTRRRGLDYWGQGTQVTVSS | low polyreactivity
QVQLVESGGGLVQAGGSLRLSCAASGFTFLYGMGWYRQAPGEERELVAAISNTGGSTYYADSVKGRFTISRDNAKNTVYLQMNSLKPEDTAVYYCAADGGQWWVFYALDFWGQGTQVTVSS | low polyreactivity
QVQLVESAGGLVQAGGSLRLSCAASGIIFGQNAMGWYRQAPGKDRELVAAITISGGSTYYADSVKGRFTISRDNAKNTVYLQMNSLKPEVTAVYYCAARRVTWKDIAGGYRYGYWGQGTQVTVSS | low polyreactivity
QVQLVESGGGLVQAGGSLRLSCAASGSTFRRYAMGWYRQAPGKEREISTSDGSTYYADSVKGRFTISRDNAKNTVYLQMNSLKPEDTAVYYCATEIEYYVGSVPDMGYWGQGTQVTVSS | low polyreactivity
QVQLVESGGGLVQAGGSLRLSCAASGNNFGVYAMGWYRQAPGTERELVAAIRYSTVSTYYADSVKGRFTISRDNAKNTVYLQMNSLKPEDTSVYYCAAQRRRYLPGHYYYWGQGTQVTVSS | high polyreactivity
QVQLVESGGGLVQAGGSLRLSCAASGFIFWAYDMGWYRQAPGKERELVAGISKRGGTTYYADSVKGRFTISRDNAKNTVYLQMNSLKPEDTAVYYCAVRLYLEMDYWGQGTQVTVSS | high polyreactivity
QVQQVESWGGLLQAGGSLRLSCAASGSIFTLYAMGWYREAPGKERELVADITWSGGSTYYADSVKGRFTISRDNAKNTVYLEMNSLKPEDTAVYYCAIDYLAGGPWEGHVEREYDYWGQGTQVTVSS | low polyreactivity
QVQLVESGGGLVQAGGSLRLSCAASGSIFTQYAMGWYRQAPGKERELVAAISWRGGRTYYADSVKGRFTISRDNAKNTVYLQMNSLKPEDTAVYYCNRVYGAHHYYYGIGTYDYWGQGTQVTVSS | high polyreactivity
QVQLVESGGGLVQAGGSLRLSCAASGFIIQGNAMGRYRQAPGKERELVAAISSSVSTYYADSVKGRFTISRDNAKNTVYLQMNSLKPEDTAVYYCNAGFPLSLWLGDYWGQGTQVTVSS | low polyreactivity
QVQLQEGRGLVQAGGSLRLSSAASGYISSRPAMGWYRQAPCKERSFVATIADGTSTYYADSVKGRFTISRDNAINTVYLQMNSLKPEDTAVYYCAAAYNTEFYLSYWGQGTQVTVSC | high polyreactivity
QVQLVESGGGLVQAGGSLRLSCAASGFIFADNPMGWYRQAPGKERELVAGITSGGITNYADSVKGRFTISRDNAKNTVYLQMNSLKPEDTAVYYCAVYYRRWFSRYDYWGQGTQVTVSS | low polyreactivity
QVQLVESGGGLVQAGGSLRLSCAASGIIFSSNAMGWYRQAPGKERELVAAISRRGGSTYYADSVKGRFTISRDNAKNTVYLQMNSLKPEDTAVYYCNALLYNGAGYDYWGQGSQVTVSS | high polyreactivity
QVQLVESWGGLVQAGGSLRLSCAASGFIFRYYAMGWYRQAPGKERELVAAISWSGGSTYYADSVKGRFTISRDNAKYTVYLQMNSLKPVDTAVYYCAADKRGSVYLSSFWMDYWGQGSQVTVSS | low polyreactivity
QVQLVESGGGLVQAGGSLRLSCAASGRIFYLYTMGWYRQAPGKEREFSRYYADSVKGRFTISRDNAKNTVYLQMNCLKPEDTAVYSCAAADHPPVWYGYWGQGTHVTVSS | low polyreactivity
QVQLVESGGGLVQAGGSLRLSCAASGSNFVGYVMGRYRQAPGKERELVARIRWGGGRTYYADSVKGRFTISRDNAKNRVYLQMKSLKAEDTAVYYCAAVWRTRWAPGYYWGQGTQVTGSS | high polyreactivity
QVQLVESGGGLVQAGGSLRLSCAASGFIFYKYAMGWYRQAPGKERELVAAITSSAGSTYYADSVKGRFTISRDNAKNTVYLQMNSLKPEDTAVYYCAADFHVDYVYWGQGTQVTVSS | high polyreactivity
QVQLVESGGGLVQAGGSLRLSCAASGRTFWYYAMGWYRQAPGKERELVAYADSVKGRFTISRDNAKNTVYLQMNSLIPEDTAVYYCAVGPVVWFSSSLYYTDYYYWGQGTQVTVSS | low polyreactivity
QVQLVESGGGLVQAGGSLRLSCSASGSTFRGYAMGWYRQAPGKDRELVAAISWSGGSTYYADSVKGRFTISRDHAKNTVYLQMNSLKPVDTAVYYCNAVGYLDFEWGQGTQVTVSS | low polyreactivity
QVQLVESGGGLVQAGGSLRLSCAASGSTFWINTMGWYRQAPGKERELVAAITRSGGNTYYADSVKGRFTISRDNAKNTVYLQMNSLKPEDTAVYYCAAAYTRKYVTHGYWGQGTQVTVSS | high polyreactivity
QVQLVESGGGLVQAGGSLRISCAASASIFPQYALGWYRQAPGKERELVAGISGSGGGTYYADSVKGRFTISRDNAKNTVSVQIHSLKPEDTAVYYCYDYWRQGTQVTVSS | low polyreactivity
QVQLVESGGGLVQAGGSLRLSCAASGFIFYWYVMGWYRQAPGKERELVAGISKNGTNTYYADSVKGRFTISRDNAKNTVYLQMNSLKPEDTAVYYCAARGYIRSRHYLEGYWGQGTQVTVSS | high polyreactivity
QVQLVESGGGLVQAGGSLRLSCAASGNIFFTNAMGWYRQAPGKDRELVATISFRGTSTYYADSVKGRFTISRDNAKNTVYLQMNSLKPEDTAVYYCTARYSVFHRARVNLLGWGLYYWGQGTQVTVSS | low polyreactivity

Sequence | polyreactivity (PSR sort gate)
QVQLVESGGGLVQAGGSLRLSCAASGSIFLYNTMGWYRQAPGKQRELVAALTYSGGSTYYADSVKGRFTISRDHAKNTVYLQMNSLKPEDTAVNYGNARHYSAYYSWGQGTLVTVSS | high polyreactivity
QVQLVESGGGLVQAGGSLRLSCAASGFIFAYYAMGWYRQAPGKERELVAAITNSGGSTYYADSVKGRFTISRDNAKNTVYLQMNSLKPEDTAVYYCNALHRIRYTPSSRYDYWGQGTQVTVSS | low polyreactivity
QVQLVESGGGLVQAGGSLRLSCAASGLTFSDNAMGWYRQAPGKEREFVAAITRNGGSTRYADSVKGRFTISRDNAKNTVYLQMNSLKPEDTAVYYCAAVPVGYDSDWGYYYWGQGTQVTVSS | low polyreactivity
QVQLVESGGGLVQAGGSLRLSCAASGRIFRGYLMGWYRQAPGKERELVAVITSGGRTYYADSVKGRFTISRDNAKNTVYLQMNSPKPEDTAVYYCATYPRYKPYYYWGQGTQVTVSS | low polyreactivity
HVQLVESGGRLVQAGGSLRLSCAASGIIFGYYAMGWYRQAPGNERELVAAIDWTGGNTYYADSVKGRFRISRDIAKNTVYLQMNSLKPEDTAVYYCAADYYSQEDYWGQGTQVTVSS | low polyreactivity
QVQLVESGGGLVQAGGSLRLSCAASGRTIKKYAMGWDRQAPGQEREFVAAITGSGGSTYYADSVKGRFTISRDNAKNTVYLQMNSLKPEDTAVYYCAAYAYGVWHSQDGGNYWGKGTQVTVSS | low polyreactivity
QVQLVESGGGLVQAGGSLRLSCAASGSTLWGYVMGWYRQAPGKERELVAVISKSGGSTYYADSVKGRFTISRDNAKNTVYLQMNSLKPEDTAVYYCATRGPYRSDWGQGTQVTVSS | high polyreactivity
QVQLLESGGGLFQAGGSLRLSCAASGLTFYRYAMGWYRKAPGKERELVAAISFSGGSTYYADSVKGRFTISRDNAKNTVYLQMNSLKPEDTAVYYCAASSYPYGYDYWGQGTQVTVSS | high polyreactivity
QVQLVESGGGLVQAGGSLRLSCAASGFTFLSNDMGWYRQSPGKERELVAGINFSGDGTYYADSVKGRFTISRDNAKNPVYLQMNSLKPEDSAVYYCAAGWLPKYGYWGKGTQVTVSS | low polyreactivity
QVQLVESGGGLVQAGGSLRLSCAASGRTFYQYAMGWYRQAPGKERELVAAISKSGRRTYYADSVKGRFTISRDNAKNTVYLQINSLKPEDTAVYYCNAARYLTRWGRFYYWGEGTQVTVSS | high polyreactivity
QVQLVESGGGLVQAGGSLRLSCAASGSIFPRNAMGWYRQAPGKERELVAAITVSDGRTYYADSVKGRFTISRDNAKNTVYLQMNSLKPEDTAVYYCAAGYTYYSLYGYWGQGTQVTVSS | low polyreactivity
QVQLVESGGGLVQAGGSLRLSCAASGRIFCKYAMGWYIQAPGKERELVAAISRSGASTYYADSVKGRFTISRDNAKNTVYLQMNSLKPEDTAVYYCAAVPPYNYRFRVYYWGQGTQVTVSS | high polyreactivity
QVQLVESGGGLVKAGGSLLLSCAASGRTIAYNAMGWYRQATGKERELVDAISNSGGRTYYADSVKGRFTISRDNAKNTVYLQMKSLKPEDTAVYYCAAYPVYRSVVSAYGYNYWGQGTQVTVSS | high polyreactivity
QVQLVESGGGLVQAGGSLRLSCAASGLTFIRYAMGWYRQAPGKQRELVAAISTSGGRTYYADSVKGRFTISRDNAKNNVYLQMNILTPEDTAVYYCNAYWRQGYYPEYYYWGQGTQVTVSS | high polyreactivity
QVQLVESGGGLVQAGGSLRLSCAASGLILYYYAMGWYRQAPGKEREFVAAISGRGGSTYYADSVKGRFTISRDNAKNTVYLQMNSLKPEDTAVYYCAARVWYKYDHWGQGTQVTVSS | high polyreactivity
QVQLVESGGGLVQAGGSLRLSCAASGGIFIGYAMGWYRQAPGKERELVAAISYSGGSTYYADSVKGRFTISRDNAKNTVYLQMNSLKPEDTAVYYCAAQVDRKYRWFNSWGQGTQVTVSS | high polyreactivity
QVQLVESGGGLVQAGGSLRLSCAASGRTFLVNAMGWYRQAPGKEREYVAAINFSVGTTTYADSVKGRFTISRDNAKNTVYLQMNSLKPEDTAVYYCNTYGRYWYIREDYWGQGTQVTVSS | high polyreactivity
QVQLVESGGGLVQAGGSLRLSCAASASNFGYNAMGRYRQAPGKERELVAVITDSGGSTYYADSVKGRFTISRDNAKNTVYLQMNSLKPEDTAVYYCAKVYGLVVRGHVILSGFDYWGQGTQVTVSS | low polyreactivity
QVQLVESGGGLVQAGGSLRLSCAASGITFTGYAMGWYRQAPGKERELVAAITSGGGRTYYADSVKGRFTISRDNAKNTVYLQMNSLKPEDTAVYYCAFRYHGYDYWGQGTQVTVSS | high polyreactivity
QVQLVESCGGLDQAGGSLRLTCAASGINFWYNTMGWYRQAPRKERELVAAITYGGGSTYYADSVKGRFTISRDNAKNSVYLQMYSMKPVDTAVYYCAVRNWHLIKYLHGYSRYGYWGQGTQVTVSS | low polyreactivity
QVQLVESGGGLLQAGGSLRLSSAASGIIFYAYAMGWYRQAPGKERELVAAITFSAVSTYYADSVKGRFTISRDNAKNTVYLQMNCLKPEDTAVYYCAAEAYKHGVWDYDYWGQGTQVTVSA | low polyreactivity
